The source of these data is publication doi:10.1101/2020.12.31.424868 (bioRxiv, 2020).

The target in this assay is head domain of VN/04 HA (A/Vietnam/1203/2004 H5N1), monomeric (Influenza A virus A/Vietnam/1203/2004 …, strain). The experiment in a line: crystal structure.

B1: H5.31 Fab (recombinant) (Fab, V domains shown)
VH: EVQLVQSGGGLVQPGGSLRLSCEASRFTSSSYWITWVRQAPGKGLEWVANIKQDGSEKYFVDSVKGRFTISRDNASNSLYLQMSSLRAEDTAVYYCARGFLERLLLGRQGAYYYGMDVWGQGTTVTVSS
VL: DIVMTQSPFSLSASVGDRVTMTCRASQSISSSLNWYQQKPGKAPKLLIYAASNLQSGVPSRFSGSGSGTDFTLTISSLQPEDFATYYCQQSYTMPPELTFGGGTKVEIK
As to B1, the binding result is “binds”.
